This data set concerns the molecule itself. In words: SDS-PAGE and Western blot of SDS-resistant high molecular weight forms; 5 ug recombinant CRES monomer alone, 50 mM sodium phosphate pH 8, room temperature 3 h with shaking and silicon beads, no ThT; 25,000 x g pellet in Laemmli buffer, Western blot for CRES. (A western blot detects proteins with antibodies after separation by electrophoresis.)

B1: Tag-less full-length mouse CRES C48A protein (recombinant) (natural protein, UniProt P32766 20-142, looked up)
chain: VGVDQSKNEVKAQNYFGSINISNANVKQAVWFAMKEYNKESEDKYVFLVDKILHAKLQITDRMEYQIDVQISRSNCKKPLNNTENCIPQKKPELEKKMSCSFLVGALPWNGEFNLLSKECKDV
notes: Cystatin-related epididymal spermatogenic protein (CRES, Cst8), mouse, called tag-less and full-length; C48A introduced to prevent inappropriate disulfide bond formation; a recombinant form without the signal peptide is possible (surmise); also called CRES monomer; recombinant CRES protein
Consider B1, for which the binding result is “binds”.

For the origin of these results see article PMC12818389, “The Functional Epididymal Amyloid Cystatin‐Related Epididymal Spermatogenic (CRES) is a Component of the Mammalian Brain Extracellular Matrix” (Journal of Neuroscience Research, 2026).
